In series [1] the target is T1, ITSN1 SH3d (aa1076-1138), recombinant (human, UniProt Q15811-1 1076-1138).
T1 construct: Intersectin 1 long form (ITSN1L), human, fourth SH3 domain (SH3d), residues 1076-1138; The purification of this protein is not described; the tag was probably cleaved as for the FCHSD2 proteins (surmised); also called pOPINS-ITSN1-SH3d; source: E. coli, 6xHis-SUMO construct (pOPINS)
T1 sequence (looked up): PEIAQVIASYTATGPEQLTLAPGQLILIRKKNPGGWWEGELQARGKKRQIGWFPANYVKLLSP
Nature of the series: pull-down; GST-tagged SH3 domains on glutathione beads incubated with recombinant protein for 10 min at room temperature, 6 washes; Coomassie stained gel. The settings on record: both partners purified.

The target in series [2] is T1, ITSN1 SH3d (aa1076-1138), recombinant. Put plainly: ITC; isothermal titration calorimetry of FCHSD2 SH3-2 and ITSN1 SH3d; conditions and direction of titration not told. The settings on record: both partners purified.
Series [3] has as its target T2, GST-tagged ITSN1 SH3d (aa1076-1138) T1086A (human, UniProt Q15811-1 1076-1138, T1086A).
T2 construct: Intersectin 1 long form (ITSN1L), human, SH3d, residues 1076-1138; also called crystal contact control mutant T1086; not shown: GST, N-terminal, kept
T2 sequence (looked up): T1 sequence (looked up) with T11A
Put plainly: pull-down; GST-tagged SH3 domains on glutathione beads incubated with recombinant protein for 10 min at room temperature, 6 washes; Coomassie stained gel. The settings on record: both partners purified.

Series [4] concerns the molecule itself. Nature of the series: SEC-MALS; Superdex S-200 10/300, 150 mM NaCl, 20 mM HEPES pH 7.5, 500 μM TCEP; F2B12 at two concentrations.
Series [5] concerns the molecule itself. Nature of the series: cryo-EM structure; single particle cryo-EM of F2B1 at 0.15-0.3 mg/ml; C2 symmetry applied; 9.2 Å reconstruction.

Changes are numbered by the printed parent chain.

B1: GST-tagged FCHSD2 SH3-2 (aa568-629) N613A (domain or fragment, human, UniProt O94868-1 568-629, looked up)
chain: SVCFVKALYDYEGQTDDELSFPEGAIIRILNKENQDDDGFWEGEFAGRIGVFPSVLVEELSA
notes: FCHSD2, human, second SH3 domain, residues 568-629; also called crystal contact control mutant N613; not shown: GST, N-terminal, kept
For B1, the binding result in series [1] is reported as “binds”.

B2: FCHSD2 SH3-2 (aa568-629), recombinant (domain or fragment, human, UniProt O94868-1 568-629, looked up)
chain: B1 chain with A46N
notes: FCHSD2, human, second SH3 domain, residues 568-629; that the same preparation was the prey of the GST pull-downs and the ITC sample is surmised; also called pOPINS-FCHSD2 SH3-2; F2S2; source: E. coli Rosetta (DE3), purified (HisTrap, anion exchange, Sumo protease, Superdex 200); not shown: His-SUMO, N-terminal, cleaved
Take B2: in series [2], the Kd stood at 248 nM and the “stoichiometry N” value is approximately 1. Further, the binding result in series [3] is on record as “binds”.

B3: GST-tagged FCHSD2 SH3-2 (aa568-629) D583A (domain or fragment, human, UniProt O94868-1 568-629, looked up)
chain: B1 chain with D16A, A46N
notes: FCHSD2, human, second SH3 domain, residues 568-629; also called crystal contact control mutant D583; not shown: GST, N-terminal, kept
Regarding B3, the binding result in series [1] is reported as “binds”.

B4: FCHSD2 BAR + SH3-1 + SH3-2 (F2B12: aa1-629) (domain or fragment, human, UniProt O94868-1 1-629, looked up)
chain: MQPPPRKVKVTQELKNIQVEQMTKLQAKHQAECDLLEDMRTFSQKKAAIEREYAQGMQKLASQYLKRDWPGVKADDRNDYRSMYPVWKSFLEGTMQVAQSRMNICENYKNFISEPARTVRSLKEQQLKRCVDQLTKIQTELQETVKDLAKGKKKYFETEQMAHAVREKADIEAKSKLSLFQSRISLQKASVKLKARRSECNSKATHARNDYLLTLAAANAHQDRYYQTDLVNIMKALDGNVYDHLKDYLIAFSRTELETCQAVQNTFQFLLENSSKVVRDYNLQLFLQENAVFHKPQPFQFQPCDSDTSRQLESETGTTEEHSLNKEARKWATRVAREHKNIVHQQRVLNDLECHGAAVSEQSRAELEQKIDEARENIRKAEIIKLKAEARLDLLKQIGVSVDTWLKSAMNQVMEELENERWARPPAVTSNGTLHSLNADTEREEGEEFEDNMDVFDDSSSSPSGTLRNYPLTCKVVYSYKASQPDELTIEEHEVLEVIEDGDMEDWVKARNKVGQVGYVPEKYLQFPTSNSLLSMLQSLAALDSRSHTSSNSTEAELVSGSLNGDASVCFVKALYDYEGQTDDELSFPEGAIIRILNKENQDDDGFWEGEFNGRIGVFPSVLVEELSA
notes: FCHSD2, human, F-BAR + SH3-1 + SH3-2, residues 1-629; also called FCHSD2 (F2B12 construct); source: E. coli Rosetta (DE3), purified (HisTrap, anion exchange, Sumo protease, Superdex 200); not shown: His-SUMO, N-terminal, cleaved
On to B4, for which the “stoichiometry N” value in series [4] came to 2.

B5: FCHSD2 BAR + SH3-1 (F2B1: aa1-530) (domain or fragment, human, UniProt O94868-1 1-530, looked up)
chain: MQPPPRKVKVTQELKNIQVEQMTKLQAKHQAECDLLEDMRTFSQKKAAIEREYAQGMQKLASQYLKRDWPGVKADDRNDYRSMYPVWKSFLEGTMQVAQSRMNICENYKNFISEPARTVRSLKEQQLKRCVDQLTKIQTELQETVKDLAKGKKKYFETEQMAHAVREKADIEAKSKLSLFQSRISLQKASVKLKARRSECNSKATHARNDYLLTLAAANAHQDRYYQTDLVNIMKALDGNVYDHLKDYLIAFSRTELETCQAVQNTFQFLLENSSKVVRDYNLQLFLQENAVFHKPQPFQFQPCDSDTSRQLESETGTTEEHSLNKEARKWATRVAREHKNIVHQQRVLNDLECHGAAVSEQSRAELEQKIDEARENIRKAEIIKLKAEARLDLLKQIGVSVDTWLKSAMNQVMEELENERWARPPAVTSNGTLHSLNADTEREEGEEFEDNMDVFDDSSSSPSGTLRNYPLTCKVVYSYKASQPDELTIEEHEVLEVIEDGDMEDWVKARNKVGQVGYVPEKYLQFPTS
notes: FCHSD2, human, F-BAR + SH3-1, residues 1-530; also called FCHSD2 F-BAR+SH3-1; source: E. coli Rosetta (DE3), purified (HisTrap, anion exchange, Sumo protease, Superdex 200); not shown: His-SUMO, N-terminal, cleaved
With B5, in series [5], the binding result is listed as “binds”.

For the origin of these results see paper PMC6057269, “A Flat BAR Protein Promotes Actin Polymerization at the Base of Clathrin-Coated Pits” (Cell, 2018).
